{
  "source": "patent US20230227565A1",
  "about": "“Method for Treating CD127-Positive Cancers by Administering an Anti-CD127 Agent” (OSE IMMUNOTHERAPEUTICS, priority 2021, published 2023)",
  "key": {"[1]": {"test_system": "macrophages", "assay": "Toxicity on macrophages (viability)", "details": "FIG. 9; increasing doses"}, "[2]": {"test_system": "macrophages", "assay": "Phagocytosis of macrophages by macrophages (autophagocytosis)", "details": "FIG. 11A", "protocol": "(§1) Phagocytosis assays. In vitro phagocytosis assays were performed by 1-hour coculture of 2,5×10^4 human primary M1 or THP1 macrophages labeled with CellTrackerGreen (ThermoFisher, Waltham, Mass., USA, 1/2000, 20 min at 37° C.) and 5×10^4 leukemic cells labeled with CPD (ThermoFisher, 1/2000 10 min at 37° C.) in serum-free RPMI. Phagocytosis was analyzed by a CytoFLEX flow cytometer (Beckman, Brea, Calif., USA) and analysis using FlowJo software (TreeStar, BD Life Sciences Franklin Lakes, N.J., USAs). The phagocytic index was calculated as follows: fold change of percentage of CPD+ cells in CTG+ macrophages compared to the one detected by treatment with istotype control multiplied by the fold change in geometric mean in APC fluorescence (CPD) in CTG+ macrophages compared to the one detected with isotype control."}, "[3]": {"test_system": "normal T cells", "assay": "Phagocytosis of normal T cells by macrophages", "format": "cell-based, human", "details": "FIG. 10", "protocol": "as §1"}},
  "data": [
    {"substance": "5F9: reference pro-phagocytic anti-CD47 antibody", "values": [
      {"measurement": "overall number of live macrophages", "setting": "[1]", "result": "drastically reduced"},
      {"measurement": "autophagocytosis of macrophages", "setting": "[2]", "result": "have an autophagocytosis activity"},
      {"measurement": "phagocytosis of normal T cells by macrophages", "setting": "[3]", "result": "A similar result is obtained"}
    ]}
  ]
}
